For this experiment, the target named is T1, wild-type human CCR7 (pcDNA3.1 Neo-hCCR7, 20100121357) (human, UniProt P32248 25-378).
T1 construct: Expressed on transfected 293T, CHO AM1/D or HEK293T cells; also called huCCR7; CCR7 receptor
T1 sequence: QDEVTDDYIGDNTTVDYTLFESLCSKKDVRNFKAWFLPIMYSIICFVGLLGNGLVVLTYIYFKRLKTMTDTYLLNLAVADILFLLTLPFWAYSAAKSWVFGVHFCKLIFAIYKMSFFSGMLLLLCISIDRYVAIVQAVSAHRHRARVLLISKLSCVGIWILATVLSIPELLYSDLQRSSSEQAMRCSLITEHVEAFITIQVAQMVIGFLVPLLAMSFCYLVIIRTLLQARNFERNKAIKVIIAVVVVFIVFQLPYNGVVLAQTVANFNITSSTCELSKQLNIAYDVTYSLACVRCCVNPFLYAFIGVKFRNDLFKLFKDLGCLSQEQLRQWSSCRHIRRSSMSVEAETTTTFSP
Description: flow cytometry on transfected 293T cells, PE secondary antibody, geo mean.

B1: antibody 6B5.1 (antibody, human IgG2, lambda, V domains shown)
VH: QVQLVESGGGVVQPGRSLRLSCAASGFTFRSYGMHWVRQAPGKGLEWVAVIWYDGSKKYYADSVKGRFTISRDNSKNTLYLQMNRLRAEDTAVYYCARDGGIAVFLEDNWFDPWGQGTLVTVSS
VL: SYELTQPPSVSVSPGQRASITCSGDKLGDKYASWYQQKPGQSPLLVIYQDGKRPSGIPERFSGSNSGNTATLTISGTQAMDEADYYCQAWGSSTVIFGGGTKLTVLG
notes: Human antibody from XenoMouse hybridoma; Light = 18 and heavy = 50 is inferred from the order of the listing
In the case of B1, the binding result is on record as “binds”.

The values above are taken from US20170342155A1 (Amgen, published 2017).
